{"source": "patent US20210079056A1", "about": "(Bayer, published 2021)", "binders": {"B1": {"name": "TPP-11156 (antibody, human IgG1, lambda)", "heavy": "not shown", "light": "QSVLTQPPSVSGAPGQRVTISCTGSSSNIGAGYDVHWYQQLPGTAPKLLIYGNSNRPSGVPDRFSGSKSGTSASLAITGLQAEDEADYYCQSYDSSLSGVVFGGGTKLTVLGQPKAAPSVTLFPPSSEELQANKATLVCLISDFYPGAVTVAWKADSSPVKAGVETTTPSKQSNNKYAASSYLSLTPEQWKSHRSYSCQVTHEGSTVEKTVAPTECS"}, "B2": {"name": "TPP-9902 (antibody)", "heavy": "not shown", "light": "B1 light"}, "B3": {"name": "TPP-10992 (antibody, human IgG4 S228P, lambda)", "heavy": "not shown", "light": "B1 light"}, "B4": {"name": "TPP-9465 (antibody)", "heavy": "not shown", "light": "B1 light"}, "B5": {"name": "TPP-10355 (antibody, human IgG1, lambda)", "heavy": "not shown", "light": "QSVLTQPPSVSGAPGQRVTISCTGSSSNIGAGYDVHWYQQLPGTAPKLLIYGNSNRPSGVPDRFSGSKSGTSASLAITGLQAEDEADYYCAAWNPNPNPNPNPNGGSGGSLRRSSCFGGRMDRIGAQSGLGCNSFRYGSNPNPNPNPNPNVFGSGTKVTVLGQPKAAPSVTLFPPSSEELQANKATLVCLISDFYPGAVTVAWKADSSPVKAGVETTTPSKQSNNKYAASSYLSLTPEQWKSHRSYSCQVTHEGSTVEKTVAPTECS"}, "B6": {"name": "TPP-13061 (antibody, human IgG1, lambda)", "heavy": "not shown", "light": "B1 light"}, "B7": {"name": "TPP-10845 (antibody, human IgG1, lambda)", "heavy": "not shown", "light": "B1 light"}, "B8": {"name": "TPP-10274 (antibody)", "heavy": "not shown", "light": "B1 light"}, "B9": {"name": "TPP-10294 (antibody, human IgG1, lambda)", "heavy": "not shown", "light": "B1 light"}, "B10": {"name": "TPP-13054 (antibody, human IgG1, lambda)", "heavy": "not shown", "light": "B1 light"}, "B11": {"name": "TPP-13230 (antibody)", "heavy": "not shown", "light": "B1 light"}, "B12": {"name": "TPP-10847 (antibody, human IgG1, lambda)", "heavy": "not shown", "light": "B1 light"}, "B13": {"name": "TPP-10765 (antibody, human IgG1, lambda)", "heavy": "not shown", "light": "B1 light"}, "B14": {"name": "TPP-10282 (antibody, human IgG1, lambda)", "heavy": "not shown", "light": "B1 light"}, "B15": {"name": "TPP-10283 (antibody, human IgG1, lambda)", "heavy": "not shown", "light": "B1 light"}, "B16": {"name": "TPP-10290 (antibody)", "heavy": "not shown", "light": "B1 light"}, "B17": {"name": "TPP-10361 (antibody, human IgG1, lambda)", "heavy": "not shown", "light": "QSVLTQPPSVSGAPGQRVTISCTGSSSNIGAGYDVHWYQQLPGTAPKLLIYGSGSGSGSGSGSPDGGSGGSLRRSSCFGGRMDRIGAQSGLGCNSFRYGSYGSGGSGSGSGNRPSGVPDRFSGSKSGTSASLAITGLQAEDEADYYCQSYDSSLSGVVFGGGTKLTVLGQPKAAPSVTLFPPSSEELQANKATLVCLISDFYPGAVTVAWKADSSPVKAGVETTTPSKQSNNKYAASSYLSLTPEQWKSHRSYSCQVTHEGSTVEKTVAPTECS"}}, "note": "Where “and” joins values, the source holds several entries; their conditions need not be identical. Equal values may be shown once."}
{"target": "T1, rat ANP receptor (NPR-A) (rat, UniProt P18910 29-1057)", "T1 sequence (looked up)": "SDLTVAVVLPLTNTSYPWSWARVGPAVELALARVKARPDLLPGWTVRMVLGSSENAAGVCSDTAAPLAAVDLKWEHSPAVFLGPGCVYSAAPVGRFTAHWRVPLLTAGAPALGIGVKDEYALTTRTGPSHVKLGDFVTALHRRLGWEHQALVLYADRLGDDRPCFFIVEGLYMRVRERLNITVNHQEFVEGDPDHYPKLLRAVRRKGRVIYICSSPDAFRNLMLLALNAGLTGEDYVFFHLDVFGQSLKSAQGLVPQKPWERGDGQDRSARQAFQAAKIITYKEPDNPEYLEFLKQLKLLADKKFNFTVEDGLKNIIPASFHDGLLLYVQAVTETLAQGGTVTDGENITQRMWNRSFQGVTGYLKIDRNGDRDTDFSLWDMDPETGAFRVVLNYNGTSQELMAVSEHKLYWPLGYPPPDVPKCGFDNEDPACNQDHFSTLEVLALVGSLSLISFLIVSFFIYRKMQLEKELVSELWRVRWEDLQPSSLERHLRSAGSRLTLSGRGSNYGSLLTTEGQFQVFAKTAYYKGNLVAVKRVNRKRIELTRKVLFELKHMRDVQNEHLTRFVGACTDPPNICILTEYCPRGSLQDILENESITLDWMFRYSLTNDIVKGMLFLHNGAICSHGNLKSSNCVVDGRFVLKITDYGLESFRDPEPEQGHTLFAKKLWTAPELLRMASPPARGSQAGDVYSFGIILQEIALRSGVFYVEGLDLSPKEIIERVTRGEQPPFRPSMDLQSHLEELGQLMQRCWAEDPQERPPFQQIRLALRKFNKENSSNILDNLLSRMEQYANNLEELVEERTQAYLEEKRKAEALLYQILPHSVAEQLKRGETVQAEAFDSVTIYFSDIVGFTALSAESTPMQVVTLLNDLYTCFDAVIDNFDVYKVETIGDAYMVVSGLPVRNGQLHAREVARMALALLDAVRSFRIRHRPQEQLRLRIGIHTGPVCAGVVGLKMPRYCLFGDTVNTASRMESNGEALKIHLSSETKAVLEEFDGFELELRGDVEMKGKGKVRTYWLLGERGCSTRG", "assay": "cell-based or functional assay", "units": {"EC50, fluorescence of cGMP reporter cells": "nM"}}
{"binder": "B1", "EC50, fluorescence of cGMP reporter cells": 1200}
{"binder": "B2", "EC50, fluorescence of cGMP reporter cells": 2300}
{"binder": "B3", "EC50, fluorescence of cGMP reporter cells": 180}
{"target": "T2, rat CNP receptor (NPR-B) (rat, UniProt P16067 17-1047)", "T2 sequence (looked up)": "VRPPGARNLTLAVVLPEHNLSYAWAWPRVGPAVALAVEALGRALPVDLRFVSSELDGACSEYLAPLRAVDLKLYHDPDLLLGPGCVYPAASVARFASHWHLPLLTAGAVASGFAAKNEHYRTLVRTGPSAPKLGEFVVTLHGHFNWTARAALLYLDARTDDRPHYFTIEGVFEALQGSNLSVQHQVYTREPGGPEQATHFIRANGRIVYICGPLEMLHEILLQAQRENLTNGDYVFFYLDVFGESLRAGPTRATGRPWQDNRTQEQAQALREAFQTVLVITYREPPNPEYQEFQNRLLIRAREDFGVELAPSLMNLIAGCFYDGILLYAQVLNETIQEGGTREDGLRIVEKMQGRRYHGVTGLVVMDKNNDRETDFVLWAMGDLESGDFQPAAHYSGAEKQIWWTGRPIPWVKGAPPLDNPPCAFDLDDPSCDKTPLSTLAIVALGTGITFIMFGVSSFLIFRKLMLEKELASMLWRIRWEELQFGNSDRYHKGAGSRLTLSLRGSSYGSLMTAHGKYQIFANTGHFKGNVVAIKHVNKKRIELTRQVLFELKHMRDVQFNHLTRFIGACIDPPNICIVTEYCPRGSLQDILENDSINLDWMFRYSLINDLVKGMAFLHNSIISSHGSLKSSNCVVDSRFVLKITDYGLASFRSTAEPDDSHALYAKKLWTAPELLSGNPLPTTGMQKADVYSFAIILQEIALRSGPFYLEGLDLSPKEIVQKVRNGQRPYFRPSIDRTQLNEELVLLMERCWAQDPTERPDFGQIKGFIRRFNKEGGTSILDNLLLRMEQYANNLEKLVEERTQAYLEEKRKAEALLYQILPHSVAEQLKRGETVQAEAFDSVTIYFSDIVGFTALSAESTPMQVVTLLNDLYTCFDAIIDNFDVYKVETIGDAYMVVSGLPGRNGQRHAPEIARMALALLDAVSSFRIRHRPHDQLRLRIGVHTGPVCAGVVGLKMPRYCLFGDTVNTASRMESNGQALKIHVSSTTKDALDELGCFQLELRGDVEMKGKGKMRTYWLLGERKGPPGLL", "assay": "cell-based or functional assay", "units": {"EC50, luminescence of cGMP reporter cells": "nM"}}
{"binder": "B4", "EC50, luminescence of cGMP reporter cells": 5.2}
{"target": "T3, human NPRA (human, UniProt P16066 33-1061)", "T3 sequence (looked up)": "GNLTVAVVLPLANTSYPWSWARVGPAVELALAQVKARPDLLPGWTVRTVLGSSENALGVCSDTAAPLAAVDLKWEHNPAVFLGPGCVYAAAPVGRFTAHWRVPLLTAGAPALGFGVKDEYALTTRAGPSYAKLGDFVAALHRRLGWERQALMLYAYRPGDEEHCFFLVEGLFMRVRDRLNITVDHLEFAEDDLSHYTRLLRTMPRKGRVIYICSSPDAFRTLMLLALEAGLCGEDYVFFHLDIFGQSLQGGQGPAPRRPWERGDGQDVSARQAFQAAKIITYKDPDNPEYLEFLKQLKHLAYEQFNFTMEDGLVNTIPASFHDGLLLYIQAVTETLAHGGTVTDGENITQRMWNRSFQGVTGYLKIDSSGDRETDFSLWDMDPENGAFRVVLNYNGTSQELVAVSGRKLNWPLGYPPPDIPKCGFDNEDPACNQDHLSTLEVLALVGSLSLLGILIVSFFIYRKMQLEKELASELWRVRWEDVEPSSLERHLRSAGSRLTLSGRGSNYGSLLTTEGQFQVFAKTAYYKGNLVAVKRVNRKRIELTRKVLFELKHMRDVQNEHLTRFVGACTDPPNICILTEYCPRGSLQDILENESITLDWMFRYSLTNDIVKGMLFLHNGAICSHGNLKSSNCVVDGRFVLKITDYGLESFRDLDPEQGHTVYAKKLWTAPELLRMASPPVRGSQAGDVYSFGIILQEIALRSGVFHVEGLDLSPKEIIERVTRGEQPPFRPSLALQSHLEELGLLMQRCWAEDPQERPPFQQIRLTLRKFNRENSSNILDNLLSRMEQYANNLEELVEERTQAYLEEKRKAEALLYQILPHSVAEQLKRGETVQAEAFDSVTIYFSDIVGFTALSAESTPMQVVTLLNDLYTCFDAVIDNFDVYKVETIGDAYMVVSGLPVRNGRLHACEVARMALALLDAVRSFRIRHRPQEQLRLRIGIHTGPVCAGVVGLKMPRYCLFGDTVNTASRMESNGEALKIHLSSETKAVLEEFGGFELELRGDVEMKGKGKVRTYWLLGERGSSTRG", "assay": "cell-based or functional assay"}
{"binder": "B5", "average rel logEC50": -0.2, "rel. logEC50 pcs 2": -0.6, "rel. logEC50 pcs 3": 0.2, "rel. logEC50 pcs 4": -0.3}
{"binder": "B6", "average rel logEC50": -0.7, "rel. logEC50* pcs": "-0.6 and -0.8"}
{"binder": "B7", "average rel logEC50": -0.6, "rel. logEC50 pcs 5": -0.4, "rel. logEC50 pcs 6": -0.8}
{"binder": "B8", "average rel logEC50": -0.1, "rel. logEC50 pcs 2": -0.3, "rel. logEC50 pcs 3": -0.2, "rel. logEC50 pcs 7": 0}
{"binder": "B9", "average rel logEC50": -0.3, "rel. logEC50* pcs": "-0.5 and -0.6 and -0.4", "rel. logEC50 pcs 4": -0.2, "rel. logEC50 pcs 7": 0}
{"binder": "B10", "average rel logEC50": -0.8, "rel. logEC50* pcs": "-0.7 and -0.8"}
{"binder": "B11", "rel. logEC50 pcs 9": -0.3}
{"binder": "B12", "average rel logEC50": -0.5, "rel. logEC50 pcs 5": 0, "rel. logEC50 pcs 6": -0.9}
{"binder": "B13", "average rel logEC50": -0.4, "rel. logEC50 pcs 5": -0.9, "rel. logEC50 pcs 6": -0.4, "rel. logEC50 pcs 7": 0.2}
{"binder": "B14", "average rel logEC50": 0.1, "rel. logEC50 pcs 1": 0.3, "rel. logEC50 pcs 2": -0.2, "rel. logEC50 pcs 4": 0.1, "rel. logEC50 pcs 5": 0.2}
{"binder": "B15", "rel. logEC50 pcs 5": -0.8}
{"binder": "B16", "average rel logEC50": -0.5, "rel. logEC50 pcs 1": -0.8, "rel. logEC50 pcs 2": -0.1}
{"binder": "B17", "rel. logEC50 pcs 5": -0.1}
